Measured values taken from patent US10851152B2, “Polymerized peptide and gel having collagen-like structure” (WASEDA UNIVERSITY, priority 2015, dated 2020).
No end group written: not given here.

Columns and labels:
[1] = test system: human dermal fibroblasts (HDF); experiment: Cell adhesion assay with multifunctional polymerized gel; assay type: cell-based; conditions: gels with 1% by weight CCC2-GFOGER (short) triple-chain peptide unless ligand free; 37° C., three hours
Protocol: CCC2-GPOGPR (short) (SEQ ID NO. 10), CC2-GPOGPR (short) (SEQ ID NO. 23) or C2-GPOGPR (short) (SEQ ID NO. 24) was respectively dissolved in a degassed ultrapure water, followed by heating it at 80° C. for 5 min, and then stranded at 4° C. overnight to form triple helix. These were mixed at various ratios, and DMSO was then added thereto in a way such that a final concentration became 10%, followed by adding them into a 96-well plate by 50 μL each. At that time, a triple-chain peptide containing CCC2-GFOGER (short) (SEQ ID NO. 11) of a weight ratio 1% was added to all the peptide mixture liquids, and those to which the triple-chain peptide was not added were recited as “Ligand-free.” This plate was then left to stand Mill in a container filled with 10% DMSO for four days or longer to turn the peptide solution into a gel. These gels were able to dilute DMSO by immersion in a cell culture medium overnight, and then used in the following experiments employing cells. Here, type I collagen was used as a positive control.
The human dermal fibroblasts (HDF) were stripped with 0.05% trypsin/EDTA, followed by centrifuged at 800 rpm in a 15 mL tube to collect the cells. […]

human fibroblast (HDF) = experiment: Adhesion of human fibroblasts to polymerized peptide with RGD motif linked via linker; assay type: cell-based; conditions: 37° C., about an hour
Protocol: CCC2-KGHRGF (SEQ ID NO. 18) was synthesized by a method similar to that of example 2. After forming triple helix with such CCC2-KGHRGF (SEQ ID NO: 18) at 1.11 mg/ml, DMSO was added to the concentration of 10%, and a mineral oil was then layered thereon, followed by oxidized and polymerized at room temperature for a week. Next, the polymerized peptide employing CCC2-KGHRGF (SEQ ID NO: 18) was diluted to 30 μg/ml, and a 96-well plate was then coated with such polymerized peptide overnight. Then, the solution was removed, followed by adding thereto 1 mg/ml BS (PEG)5 (by Pierce, catalog No. 21581) dissolved in a 5 mg/ml NaHCO3 aqueous solution, and then reacted at room temperature for about an hour to bind the linker. Next, there was added 10 mM ethanolamine (EA) or 100 μg/ml RGD pep (SEQ ID NO. 22) dissolved in a 5 mg/ml NaHCO3 aqueous solution, followed by allowing reaction to link CCC2-KGHRGF (SEQ ID NO: 18) to the linker at room temperature for about an hour.
5 mg/ml BSA was added to a gel linked with the above RGD motif, to perform blocking for about an hour. […] After air drying, microscopic observation was carried out, and there was evaluated a binding ability of HDF to the RGD motif linked to such polymerized peptide via a linker.

[2] = Remaining thiol group (Ellman's reagent) in oxidative polymerization reaction; assay type: physicochemical; conditions: 10% DMSO, peptide 1% (w/v)
Protocol: Degassed water was used to prepare a peptide solution having a concentration of 1.11% (w/v), and the solution was then put into a PCR tube. After heating this solution at 80° C. for 5 min, it was then left to sand still at 4° C. overnight. By adding DMSO to this solution, there was prepared a peptide solution having a final concentration of 10% DMSO, peptide 1% (w/v). The PCR tube was then filled with a mineral oil in a way such that the mineral oil covered the surface of the solution. In every measurement, the mineral oil was eliminated from the peptide solution to prepare a peptide solution for oxidation monitoring. Ellman's reagent was prepared in a way such that 9 mg/ml of DTNB was present in 50 mM of a phosphate buffer solution (pH 8.4). 33 mM phosphate buffer solution (pH 8.4) and Ellman's reagent 1.5 mg/ml were left to stand for […], then a light absorbance was then measured after a solution with a final concentration of peptide 0.167 mg/ml. Recorded were changes in absorbance with time, with a moment when DMSO was added being a starting point (0 hour). Since the Ellman's reagent generates 5-mercapto-2-nitrobenzoate (λ max=412 nm, ε=1.55×10^4) depending on the amount of thiol groups (referred to as “SH groups” hereunder) in the peptide, measured was a absorbance at 412 nm. After the measurement, optical path length was compensated by measuring absorbance at 997 nm and 900 nm.

[3] = CD spectrum measurement of triple-helical structure and its thermal stability; assay type: physicochemical; conditions: 225 nm; temperature gradient 18° C./h
Protocol: The structure of the peptide was confirmed by CD spectrum (circular dichroism spectrometer J-820, JASCO Corporation). A peptide powder was dissolved in a degassed 0.05% TFA/H2O to prepare a solution of 1 mg/ml. After heating at 80° C. for 5 min, the solution was left to stand at 4° C. overnight to cause refolding as a measurement sample. CD spectrum was measured under the conditions of: temperature 4° C., 37° C., 80° C.; cell length 0.05 cm; sensitivity standard (100 mdeg); measurement wavelength 250 to 190 nm; data collection interval 0.2 nm; scanning speed 50 nm/min; response 0.5 sec; band width 1 nm; cumulated number 4. A signal obtained (θobs) was expressed as a residue average molar ellipticity (θmrw). θmrw was calculated by the following formula.
A thermal stability of the triple-helical structure was observed by monitoring θmrw, 225 associated with a change in temperature. The measurement conditions were: 4 to 75° C. or 4 to 90° C.; cell length 0.05 cm; measurement wavelength 225 nm; data collection interval 0.5° C.; temperature gradient 18° C./h; sensitivity standard (100 mdeg); response 2 sec; band width 1 nm. It was determined that the triple-helical structure completely turned into a random coil structure in a region where the signal was linearly diminishing.

[4] = Thermal stability of hydrogel (sinking of stainless ball); assay type: physicochemical; conditions: hydrogel of 1% (w/v) peptide; 10 min per temperature
Protocol: After mounting the stainless ball on the hydrogel prepared, they were moved to a thermostatic device, and were left to stand for 10 min at various temperatures between 35° C. and 95° C. Whether gel collapse had occurred was determined by judging the sinking of the stainless ball.

[5] = Hydrogel stability to reduction treatment (DTT) or water with pipetting; assay type: physicochemical; conditions: water added instead of reducing solution; pipetting about 90 times/min
Protocol: There, verification was made on whether gel caused a collapse by breaking the disulfide cross-linking by a reduction treatment. A reducing solution of 100 μl (100 mM DTT, 50 mM phosphate buffer solution (pH 8.4)) or water was added to the hydrogel (30 μl) prepared. […] Then, pipetting procedure was respectively performed at a frequency of about 90 times/min and a volume of 100 μl/each time, using a yellow tip (up to 200 μl).

[6] = Hydrogel formation judged by holding of a stainless ball; assay type: physicochemical; set-up: key to gel formation, Time (hour) 9 / gel formation, Time (hour) 12 / gel formation, Time (hour) 15 / gel formation, Time (hour) 24 / gel formation, Time (hour) 32 / gel formation, Time (hour) 74 / gel formation, Peptide concentration 0.1% (w/v) / gel formation, Peptide concentration 0.2% (w/v) / gel formation, Peptide concentration 0.3% (w/v) / gel formation, Peptide concentration 0.5% (w/v) / gel formation, Peptide concentration 0.7% (w/v) / gel formation, Peptide concentration 1.0% (w/v): ◯: Gelated; X: Failed to gelate
Protocol: Degassed water was used to prepare a peptide solution having a concentration of 1.11% (w/v) or 1.66% (w/v), and the solution was then put into a PCR tube. After heating this solution at 80° C. for 5 min using a polymerase chain reaction (PCR) machine (TaKaRa PCR Thermal Cycler, TAKARA BIO INC.), the solution was then left to stand at 4° C. overnight. By adding DMSO and water to this solution, there was prepared a peptide solution having a concentration of 10% DMSO, 0.1 to 1.5% (w/v). The PCR tube was then filled with a mineral oil in a way such that the mineral oil covered the liquid surface, followed by allowing the solution to stand at room temperature for a given period of time to achieve a gel. Then, gel formation was determined by looking at whether a stainless ball could be held by the gel.

CCC(POG)4FOGERG(POG)4CCC [CCC2-GFOGER (short)]
adhesion and aggregation of human dermal fibroblasts on gel [1]: each human dermal fibroblast elongated and adhered respectively

GRGDS-NH2 [soluble RGD, soluble peptide having the RGD motif, as a control]
adhesion of HDF (human fibroblast (HDF)): binding ability of HDF was not exhibited

CC(POG)6PRG(POG)5CC (CCPPGPPGPPGPPGPPGPPGPRGPPGPPGPPGPPGPPGCC; not fully specified; hydroxyproline; MOD_RES (4)..(4) 4-Hydroxyproline; MOD_RES (7)..(7) 4-Hydroxyproline; MOD_RES (10)..(10) 4-Hydroxyproline; MOD_RES (13)..(13) 4-Hydroxyproline; MOD_RES (16)..(16) 4-Hydroxyproline; MOD_RES (19)..(19) 4-Hydroxyproline; MOD_RES (25)..(25) 4-Hydroxyproline; MOD_RES (28)..(28) 4-Hydroxyproline; MOD_RES (31)..(31) 4-Hydroxyproline; MOD_RES (34)..(34) 4-Hydroxyproline; MOD_RES (37)..(37) 4-Hydroxyprolin) [CC2]
time in which peptide turned into a gel [2]: 74 h | thermal denaturation (change in θ225 as temperature changed) [3]: about 75 °C | temperature at which the stainless ball completely sank [4]: 95 °C | gel collapse on adding water [5]: gel collapse was observed | gel-forming capability ([6]; 1% (w/v) peptide, 10% DMSO, room temperature, up to three days): capable of turning into gels | gel formation, Time (hour) 9 ([6]; 1% (w/v) peptide, 9 hour): X | gel formation, Time (hour) 12 ([6]; 1% (w/v) peptide, 12 hour): X | gel formation, Time (hour) 15 ([6]; 1% (w/v) peptide, 15 hour): X | gel formation, Time (hour) 24 ([6]; 1% (w/v) peptide, 24 hour): X | gel formation, Time (hour) 32 ([6]; 1% (w/v) peptide, 32 hour): ◯ | gel formation, Time (hour) 74 ([6]; 1% (w/v) peptide, 74 hour): ◯ | gel formation, Peptide concentration 0.3% (w/v) ([6]; oxidizing conditions: room temperature, three days, 0.3% (w/v)): X | gel formation, Peptide concentration 0.5% (w/v) ([6]; oxidizing conditions: room temperature, three days, 0.5% (w/v)): X | gel formation, Peptide concentration 0.7% (w/v) ([6]; oxidizing conditions: room temperature, three days, 0.7% (w/v)): X | gel formation, Peptide concentration 1.0% (w/v) ([6]; oxidizing conditions: room temperature, three days, 1.0% (w/v)): ◯
